From the supplement of paper PMC9112550, “Optimization of the antimicrobial peptide Bac7 by deep mutational scanning” (BMC Biology, 2022)

Test system: Escherichia coli TOP10
Experiment: shrunken log2 fold change of peptide-encoding DNA abundance (4.5 h post-induction vs induction); higher = less antimicrobial activity (less host growth inhibition)
Conditions: time post-induction: 4.5 h; library: site-saturation at positions 5, 18, 19, 20
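Note: peptides expressed intracellularly from a pBAD plasmid library in pooled LB shake-flask culture, induced with 0.3% L-arabinose, DNA abundance read by NGS, three biological replicates, DESeq2 with apeglm shrinkage.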

| Sequence | shrunken log2 fold change |
| --- | --- |
| RRIRVRPPRLPRPRPRPFCTPRP | -0.389 |
| RRIRERPPRLPRPRPRPSDKPRP | -0.982 |
| RRIRDRPPRLPRPRPRPINAPRP | 0.00476 |
| RRIRGRPPRLPRPRPRPLDMPRP | 0.441 |
| RRIRARPPRLPRPRPRPWDDPRP | 0.177 |
| RRIRYRPPRLPRPRPRPVLLPRP | -0.109 |
| RRIRYRPPRLPRPRPRPGEYPRP | -0.0574 |
| RRIRYRPPRLPRPRPRPKAFPRP | 0.0171 |
| RRIRVRPPRLPRPRPRPCNQPRP | 0.0169 |
| RRIRGRPPRLPRPRPRPEYNPRP | 0.643 |
| RRIRHRPPRLPRPRPRPLVKPRP | -0.29 |
| RRIRSRPPRLPRPRPRPYICPRP | -0.959 |
| RRIRWRPPRLPRPRPRPGMTPRP | 0.167 |
| RRIRHRPPRLPRPRPRPFGFPRP | -0.0586 |
| RRIRKRPPRLPRPRPRPYMTPRP | -0.0252 |
| RRIRCRPPRLPRPRPRPVKYPRP | -0.596 |
| RRIRRRPPRLPRPRPRPRWSPRP | 0.498 |
| RRIRRRPPRLPRPRPRPFCYPRP | -0.00369 |
| RRIRSRPPRLPRPRPRPKQTPRP | -0.159 |
| RRIRFRPPRLPRPRPRPFVTPRP | -0.442 |
| RRIRNRPPRLPRPRPRPITCPRP | -0.166 |
| RRIRKRPPRLPRPRPRPTREPRP | 0.48 |
| RRIRVRPPRLPRPRPRPIHDPRP | -0.0895 |
| RRIRLRPPRLPRPRPRPTLRPRP | 0.161 |
| RRIRERPPRLPRPRPRPWYLPRP | 0.0355 |

| Sequence | shrunken log2 fold change |
| --- | --- |
| RRIRFRPPRLPRPRPRPIAPPRP | 0.0659 |
| RRIRGRPPRLPRPRPRPYKRPRP | -0.217 |
| RRIRDRPPRLPRPRPRPLCVPRP | 0.248 |
| RRIRRRPPRLPRPRPRPACLPRP | 0.623 |
| RRIRLRPPRLPRPRPRPPYEPRP | -0.468 |
| RRIRERPPRLPRPRPRPGDFPRP | -0.107 |
| RRIRKRPPRLPRPRPRPWPSPRP | 0.0175 |
| RRIRTRPPRLPRPRPRPNHAPRP | 0.176 |
| RRIRDRPPRLPRPRPRPGNQPRP | -0.0686 |
| RRIRGRPPRLPRPRPRPCNTPRP | 0.00375 |
| RRIRERPPRLPRPRPRPSEFPRP | -0.23 |
| RRIRARPPRLPRPRPRPINAPRP | -0.256 |
| RRIRPRPPRLPRPRPRPNEMPRP | 0.0125 |
| RRIRTRPPRLPRPRPRPVRFPRP | 0.0687 |
| RRIRPRPPRLPRPRPRPHQMPRP | 0.0123 |
| RRIRQRPPRLPRPRPRPICNPRP | -0.211 |
| RRIRVRPPRLPRPRPRPIHWPRP | -0.131 |
| RRIRIRPPRLPRPRPRPYEMPRP | -0.00062 |
| RRIRIRPPRLPRPRPRPQGNPRP | -0.304 |
| RRIRKRPPRLPRPRPRPCIFPRP | -0.0101 |
| RRIRLRPPRLPRPRPRPSRSPRP | -0.0638 |
| RRIRMRPPRLPRPRPRPQFNPRP | -0.661 |
| RRIRLRPPRLPRPRPRPDHWPRP | 0.143 |
| RRIRTRPPRLPRPRPRPGSDPRP | 0.424 |
| RRIRERPPRLPRPRPRPAKFPRP | 0.112 |

| Sequence | shrunken log2 fold change |
| --- | --- |
| RRIRMRPPRLPRPRPRPWVMPRP | -0.022 |
| RRIRQRPPRLPRPRPRPGMSPRP | 0.285 |
| RRIRTRPPRLPRPRPRPDFFPRP | 0.175 |
| RRIRHRPPRLPRPRPRPYRFPRP | -0.269 |
| RRIRRRPPRLPRPRPRPTYGPRP | 0.0875 |
| RRIRRRPPRLPRPRPRPICVPRP | 0.0261 |
| RRIRVRPPRLPRPRPRPGWCPRP | 0.146 |
| RRIRDRPPRLPRPRPRPGPLPRP | 0.0434 |
| RRIRGRPPRLPRPRPRPCNCPRP | 0.155 |
| RRIRYRPPRLPRPRPRPFHCPRP | -0.0983 |
| RRIRYRPPRLPRPRPRPEWAPRP | 0.193 |
| RRIRSRPPRLPRPRPRPRICPRP | -0.191 |
| RRIRPRPPRLPRPRPRPKTVPRP | -0.171 |
| RRIRGRPPRLPRPRPRPPWQPRP | 0.691 |
| RRIRWRPPRLPRPRPRPSYRPRP | -0.895 |
| RRIRNRPPRLPRPRPRPTWMPRP | -0.155 |
| RRIRFRPPRLPRPRPRPLIRPRP | -0.382 |
| RRIRGRPPRLPRPRPRPLYEPRP | 0.913 |
| RRIRKRPPRLPRPRPRPKTCPRP | 0.209 |
| RRIRLRPPRLPRPRPRPMIFPRP | 0.0629 |
| RRIRIRPPRLPRPRPRPVPQPRP | 0.224 |
| RRIRWRPPRLPRPRPRPGGVPRP | 0.427 |
| RRIRERPPRLPRPRPRPIEGPRP | 0.0039 |
| RRIRERPPRLPRPRPRPGLHPRP | -0.124 |
| RRIRCRPPRLPRPRPRPKRDPRP | 5.21 |
